From the array DNA melting data of Ke et al. come the findings set out here.

A short description of the data set: melting temperature; melt of duplexes. The following applies: sodium 0.0675 M; strand 1 µM.
As to “CGACGTGCCTGATGTGCTG+CAGCACATAGAGCACGTCG ((((((((...((((((((+))))))))...))))))))”, the Tm is 51.2 °C.
Next, “CGACGTGCTAGATGTGCTG+CAGCACATGGTGCACGTCG ((((((((...((((((((+))))))))...))))))))”: 46.9 °C; “CGACGTGCACTATGTGCTG+CAGCACATTATGCACGTCG (((((((((..((((((((+))))))))..)))))))))”: 46.2 °C.
As for “CGACGTGCCAAATGTGCTG+CAGCACATAGGGCACGTCG (((((((((..((((((((+))))))))..)))))))))”, the figure is 54.6 °C; as for “CGACGTGCTAGATGTGCTG+CAGCACATTTAGCACGTCG ((((((((((.((((((((+)))))))).))))))))))”, 56.6 °C.
As for “CGACGTGCACGATGTGCTG+CAGCACATTCAGCACGTCG ((((((((...((((((((+))))))))...))))))))”, the figure is 45.5 °C; as for “CGACGTGCATGATGTGCTG+CAGCACATAACGCACGTCG ((((((((.(.((((((((+)))))))).).))))))))”, 49.3 °C.
For “CGACGTGCGAAATGTGCTG+CAGCACATGACGCACGTCG (((((((((..((((((((+))))))))..)))))))))”, the Tm is 55 °C.
As for “CGACGTGCCGTATGTGCTG+CAGCACATGTCGCACGTCG ((((((((...((((((((+))))))))...))))))))”, the figure is 49 °C; as for “CGACGTGCACGATGTGCTG+CAGCACATGAAGCACGTCG ((((((((...((((((((+))))))))...))))))))”, 46.2 °C; as for “CGACGTGCCATATGTGCTG+CAGCACATCCTGCACGTCG ((((((((...((((((((+))))))))...))))))))”, 47.7 °C.
As for “CGACGTGCGAGATGTGCTG+CAGCACATAGGGCACGTCG ((((((((...((((((((+))))))))...))))))))”, the figure is 50.7 °C; as for “CGACGTGCAACATGTGCTG+CAGCACATTGCGCACGTCG ((((((((...((((((((+))))))))...))))))))”, 48.8 °C.
As for “CGACGTGCTTTATGTGCTG+CAGCACATGGTGCACGTCG ((((((((...((((((((+))))))))...))))))))”, the figure is 45.6 °C; as for “CGACGTGCCGCATGTGCTG+CAGCACATTAGGCACGTCG (((((((((..((((((((+))))))))..)))))))))”, 55.3 °C; as for “CGACGTGCAGAATGTGCTG+CAGCACATTTTGCACGTCG (((((((((.(((((((((+))))))))).)))))))))”, 57 °C.
For the substance “CGACGTGCATAATGTGCTG+CAGCACATCGAGCACGTCG ((((((((...((((((((+))))))))...))))))))”, the Tm came out at 48.5 °C.
Next, “CGACGTGCTATATGTGCTG+CAGCACATTGTGCACGTCG ((((((((...((((((((+))))))))...))))))))”: 47.2 °C; “CGACGTGCTCAATGTGCTG+CAGCACATGCTGCACGTCG ((((((((...((((((((+))))))))...))))))))”: 47.9 °C; “CGACGTGCTATATGTGCTG+CAGCACATTGGGCACGTCG ((((((((...((((((((+))))))))...))))))))”: 50.5 °C.
As for “CGACGTGCCCCATGTGCTG+CAGCACATGTTGCACGTCG ((((((((..(((((((((+)))))))))..))))))))”, the figure is 51.8 °C; as for “CGACGTGCGCCATGTGCTG+CAGCACATTAGGCACGTCG ((((((((...((((((((+))))))))...))))))))”, 48.3 °C.
Next, “CGACGTGCTCGATGTGCTG+CAGCACATGACGCACGTCG ((((((((...((((((((+))))))))...))))))))”: 47.4 °C; “CGACGTGCCATATGTGCTG+CAGCACATTAAGCACGTCG ((((((((...((((((((+))))))))...))))))))”: 50.1 °C; “CGACGTGCATCATGTGCTG+CAGCACATTTCGCACGTCG ((((((((...((((((((+))))))))...))))))))”: 46.9 °C.
With “CGACGTGCCAGATGTGCTG+CAGCACATAACGCACGTCG ((((((((...((((((((+))))))))...))))))))”, the Tm was determined as 48.6 °C.

In general, Tm refers to the temperature at which the thermal transition is half complete.
